Laboratory results: US20200353078A1 (AstraZeneca / MedImmune, published 2020)
Residue numbers refer to the chain shown, from its start.

T1: Human IL-33 Flag®His (human)
T1 chain: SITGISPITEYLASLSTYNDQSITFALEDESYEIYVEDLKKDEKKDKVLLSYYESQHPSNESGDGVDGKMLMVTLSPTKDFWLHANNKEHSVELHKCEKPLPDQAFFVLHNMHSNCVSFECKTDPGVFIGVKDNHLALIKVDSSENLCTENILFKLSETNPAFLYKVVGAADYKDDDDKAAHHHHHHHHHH

T2: Cynomolgus IL-33 Flag®His (cynomolgus monkey)
T2 construct: C-terminal FLAG 10xHis tag, E. coli; also called Mature Cynomolugus IL-33; cyno IL-33 FH
T2 chain: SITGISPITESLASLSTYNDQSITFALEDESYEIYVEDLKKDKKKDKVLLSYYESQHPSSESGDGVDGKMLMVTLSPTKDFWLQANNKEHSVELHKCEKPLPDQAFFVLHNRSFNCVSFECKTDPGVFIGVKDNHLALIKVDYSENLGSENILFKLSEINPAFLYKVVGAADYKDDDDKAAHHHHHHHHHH

T3: His10/Avi Cyno IL-33 (cynomolgus monkey)
T3 construct: also called Cynomolgus 10His Avitag IL-33; biotinylated His Avi cynomolgus IL-33
T3 chain: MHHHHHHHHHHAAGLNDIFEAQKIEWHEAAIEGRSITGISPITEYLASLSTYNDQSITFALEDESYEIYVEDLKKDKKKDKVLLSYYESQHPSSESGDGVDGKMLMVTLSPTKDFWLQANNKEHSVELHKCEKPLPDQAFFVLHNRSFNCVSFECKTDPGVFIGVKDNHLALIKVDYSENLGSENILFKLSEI

T4: ST2 on human umbilical vein endothelial cells (human, UniProt Q01638 19-556)
T4 sequence (looked up): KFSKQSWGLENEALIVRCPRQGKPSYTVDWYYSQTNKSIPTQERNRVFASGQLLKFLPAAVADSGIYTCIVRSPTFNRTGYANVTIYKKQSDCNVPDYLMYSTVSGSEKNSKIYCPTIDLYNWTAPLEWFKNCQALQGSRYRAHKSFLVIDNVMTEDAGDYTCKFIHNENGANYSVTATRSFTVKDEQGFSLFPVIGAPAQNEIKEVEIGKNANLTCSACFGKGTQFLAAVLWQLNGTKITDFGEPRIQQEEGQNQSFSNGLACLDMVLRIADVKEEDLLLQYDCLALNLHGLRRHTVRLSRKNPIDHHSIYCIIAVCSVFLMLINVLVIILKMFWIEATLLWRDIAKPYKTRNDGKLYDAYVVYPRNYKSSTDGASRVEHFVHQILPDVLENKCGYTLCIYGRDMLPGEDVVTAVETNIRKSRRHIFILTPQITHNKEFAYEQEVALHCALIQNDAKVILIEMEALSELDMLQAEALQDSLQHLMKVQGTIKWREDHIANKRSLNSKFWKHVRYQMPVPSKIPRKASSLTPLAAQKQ

B1: IL330126 IgG1 (antibody, V domains shown)
VH: EVQLVQSGAELKKPGASVKVSCKTSGYSFNTYGISWVRQAPGQGLEWMGWVSGDDGNINYAEKFQGRVAMTTDTSTTTAYMELWSLTSDDTAVYYCARVRRGSGWYKNYHYYMDVWGQGTMVTVSS
VL: QSVLTQPPSVSVSPGQTASVTCSGDRLGDKYASWYQQKPGQSPVLVIYQDRKRPSGIPERFSGSNSGNTATLTISGTQAMDEADYYCQAWDGSTALFGGGTKLTVL
notes: Human IgG1, lambda constant
B2: IL330125 IgG1 (antibody, V domains shown)
VH: EVQLVQSGAEVKKPGASVTVSCKASGYSFTDYYIHWVRQAPGQGPEWMGWINPNSGVTDFAQKFLGRVTMTRDTSISTAYMELSRLTSDDTALYYCARVAFVYYDSSAFQYWGKGTLVTVSS
VL: LPVLTQPPSVSVSPGQTATITCSADKLGDKYAAWYQQKPGQSPVLVIYQDRKRPSGIPERFSGSNSGNTATLIISGTQAMDEADYYCQAWDSNTGLYVFGTGTKLTVL
notes: Human IgG1, lambda constant
B3: 33_640027 scFv (scFv, V domains shown)
VH: EVQLLESGGDLVQPGGSLRLSCAASGFTFSSYAMSWVRQAPGKGLEWVSAIGGSGGSTYYADSVKGRFTISRDNSKNTLYLQMNSLRAEDTAVYYCARDLWMQLWGGGLRYPFGYWGQGTMVTVSS
VL: LPVLTQPPSVSVSPGQKASITCSGERIGDKYAAWYQQKPGQSPILVIYRDTKRPSGIPERFSGSNSGNTATLTISGTQDMDEADYYCQVWDSSTGVFGGGTKVTVL
notes: Single chain Fv
B4: 33_640050 scFv (scFv, V domains shown)
VH: B3 VH with D10G, G52S, A97P, D99H, L100K, W101F
VL: B3 VL with L1S, P2Y, K17T, I27M, I44V, R49Q, D79A
notes: Single chain Fv
B5: 33v20064 scFv (scFv, V domains shown)
VH: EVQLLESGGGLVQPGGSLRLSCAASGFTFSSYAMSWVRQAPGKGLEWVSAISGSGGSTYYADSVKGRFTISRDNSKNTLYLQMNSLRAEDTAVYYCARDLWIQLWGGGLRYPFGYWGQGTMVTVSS
VL: B3 VL with I27M, R49Q
notes: Single chain Fv
B6: His10/Avi Human IL33-01 (ligand)
chain: T3 chain with K77E, S94N, Q118H, R146M, S147H, F148S, Y177S, G182C, S183T, I193T
B7: His10/Avi Human IL33-11 (ligand)
chain: MHHHHHHHHHHAAGLNDIFEAQKIEWHEAAIEGRSITGISPITEYLASLSTYNDQSITFALEDESYEIYVEDLKKDEKKDKVLLSYYESQHPSNESGDGVDGKMLMVTLSPTKDFWLHANNKEHSVELHKSEKPLPDQAFFVLHNMHSNCVSFECKTDPGVFIGVKDNHLALIKVDSSENLSTENILFKLSET

Columns and labels:
Human IL-33 Flag®His [1] = biological target: T1, Human IL-33 Flag®His; test: cell-based or functional assay
Human IL-33 Flag®His [2] = biological target: T1, Human IL-33 Flag®His; test: HTRF competition, IgG titrated against biotinylated human ST2-Fc
Method: The ability of anti-IL-33 antibodies to inhibit the binding of FLAG®-His tagged IL-33 to the ST2 receptor was assessed in a biochemical HTRF® (Homogeneous Time-Resolved Fluorescence, Cisbio International) competition assay, the principles of which are described above.
(§1) Activity of purified IgG preparations were determined by competing a dilution series of the purified IgG against biotinylated human or mouse ST2.Fc for binding to FLAG® His-tagged human, cynomolgus or mouse IL-33.
(§2) Purified or unpurified anti-IL-33 antibody samples were tested for inhibition of FLAG®-His tagged IL-33 binding ST2-Fc by adding 10 microlitres of each dilution of antibody test sample to a 384 well low volume assay plate (Costar 3676). Next, a solution containing 4 nM biotinylated human or mouse ST2-Fc and 20 nM streptavidin XL665 detection (Cisbio International, 611SAXLB) was prepared and 5 microlitres of the mix added to the assay plate. This was followed by the addition of 5 microlitres of a solution containing 1.2 nM FLAG®-His tagged human, cynomolgus or mouse IL-33 combined with 1.72 nM anti-FLAG® cryptate detection (Cisbio International, 61FG2KLB). All dilutions were performed in assay buffer comprised of Dulbeccos PBS (Invitrogen, 14190185) containing 0.8 M potassium fluoride (BDH 103444T) and 0.1% BSA (Sigma A9576). Assay plates were incubated for 2 hour at room temperature followed by 16 hour at 4° C. before reading time resolved fluorescence at 620 nm and 665 nm emission wavelengths using an EnVision plate reader (Perkin Elmer).

[3] = biological target: T2, Cynomolgus IL-33 Flag®His; test: HTRF competition: purified IgG titrated against biotinylated human ST2-Fc for FLAG-His cynomolgus IL-33
Method: as §1, §2

His10/Avi Human IL33-01 [4] = biological target: B6; test: HTRF epitope competition, scFv titrated; competitor DyLight labelled 33v20064 IgG
Method: (§3) This was followed by the addition of 2.5 microlitres of a solution containing 0.8 nM biotinylated human IL-33-01 combined with 0.75 nM streptavidin cryptate detection (Cisbio International, 610SAKLB) for the human assay or a solution containing 4 nM biotinylated cynomolgus IL-33 combined with 1.5 nM streptavidin cryptate detection (Cisbio International, 610SAKLB) for the cynomolgus assay. All dilutions were performed in assay buffer containing 0.8 M potassium fluoride (VWR, 26820.236) and 0.1% bovine serum albumin (BSA, PAA, K05-013) in Dulbeccos PBS (Invitrogen, 14190185). Assay plates were incubated for 1 hour at room temperature and time resolved fluorescence was read at 620 nm and 665 nm emission wavelengths using an EnVision plate reader (Perkin Elmer). Data were analysed by calculating the 665/620 nm ratio followed by the % Delta F values for each sample. The 665/620 nm ratio was used to correct for sample interference using Equation 1. The % Delta F for each sample was then calculated using Equation 2. The negative control (non-specific binding) was defined by replacing biotinylated IL-33 combined with streptavidin cryptate detection with streptavidin cryptate detection only. The % Delta F values were subsequently used to calculate % specific binding as described in Equation 3.
(§4) Unique scFv were expressed again in bacteria and purified by affinity chromatography (as described in WO01/66754). Purified anti-IL-33 antibody samples were tested for potency of inhibition by competing a dilution series of the purified preparation against DyLight labelled 33v20064 IgG or DyLight labelled 33_640027 IgG for binding to biotinylated His Avi IL33-01, biotinylated His Avi IL33-11 or biotinylated His Avi cynomolgus IL-33. Methods are as described in the previous section.

His10/Avi Human IL33-11 [5] = biological target: B7; test: as above
Method: as §3, §4

His10/Avi Cyno IL-33 [6] = biological target: T3, His10/Avi Cyno IL-33; test: as above
Method: as §3, §4

His10/Avi Human IL33-01 [7] = biological target: B6; test: HTRF epitope competition, scFv titrated; competitor DyLight labelled 33_640027 IgG
His10/Avi Human IL33-11 [8] = biological target: B7; test: as above
His10/Avi Cyno IL-33 [9] = biological target: T3, His10/Avi Cyno IL-33; test: as above
[10] = biological target: T4, ST2 on human umbilical vein endothelial …; test: cell-based or functional assay

| IC50, human ST2 transfected HeLa NFkB luciferase reporter assay (Human IL-33 Flag®His [1]) [nM] | IC50 (Human IL-33 Flag®His [2]) [nM] | binding result [3] | IC50 (His10/Avi Human IL33-01 [4]) [nM] | IC50 (His10/Avi Human IL33-11 [5]) [nM] | IC50 (His10/Avi Cyno IL-33 [6]) [nM] | IC50 (His10/Avi Human IL33-01 [7]) [nM] | IC50 (His10/Avi Human IL33-11 [8]) [nM] | IC50 (His10/Avi Cyno IL-33 [9]) [nM] | IC50 (nM) Untreated, HUVEC NFkB translocation assay [10] [nM] | Binder |
| --- | --- | --- | --- | --- | --- | --- | --- | --- | --- | --- |
| 245 | 226 | binds |  |  |  |  |  |  |  | B1 |
| 332 | 210 | binds |  |  |  |  |  |  |  | B2 |
|  |  |  | 0.4 | 0.6 | 8.2 | 3.8 | 2.9 | 38 |  | B3 |
|  |  |  | 0.2 | 0.4 | 1.4 | 2.5 | 2.4 | 4.1 |  | B4 |
|  |  |  | 12 | 26 | 103 | 1500 | 1470 | 3430 |  | B5 |
|  |  |  |  |  |  |  |  |  | 0.13 | B6 |
|  |  |  |  |  |  |  |  |  | 0.49 | B7 |
